Data from the supplement of paper PMC12042874.
± gives the uncertainty stated by the source.

assay: amyloid nucleation score (Sup35N fusion, yeast selection) (log enrichment); library NNK2; higher = more nucleation; inactive = no reads after selection
Procedure, shortened: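 Nucleation score: DiMSum log enrichment of output over input reads, centred on the mode score of non-aggregating sequences. Only sequences with at least 100 input reads were kept. Reads came from Illumina sequencing of plasmid inserts before and after 7 days of growth at 30°C without adenine and uracil, in psi-negative yeast expressing Sup35N fused to peptides of 20 random codons after 24 hours of induction with 100 μM copper sulfate.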

| Substance | amyloid nucleation score |
| --- | --- |
| MKCWASPGWTQIQMEPKEGS | 0.064 ± 0.26 |
| SWKSFKRPGTRCRGQYYYMS | -0.266 ± 1 |
| NWDSINFYRAVSYCDHIFYV | inactive |
| MCMLTLRLNQLYMAIMHG | 0.603 ± 0.36 |
| GQELSGNIFIPDHLGLLSCS | 0.744 ± 0.8 |
| HVYPVWFCWLYSFRLHYSQV | -0.149 ± 0.56 |
| HCGYEAIILWGVRFCGILQR | -0.357 ± 1.1 |
| RLSPPLCVLIYIMRYLNGYW | 0.42 ± 0.66 |
| ASVPCVIMGRASRPRVPRMS | 1.42 ± 0.29 |
| ILMCETLWNWLKWIPKFNSC | -0.403 ± 0.5 |
| WPGRRRYAMCVMTKRRGGLE | 0.422 ± 0.29 |
| CIVSVNERRVVFGAVNTEFR | 4.79 ± 0.058 |
| ANCCLRTWVFCRSYCYIILF | -0.014 ± 0.8 |
| MTYCVN | 3.87 ± 0.067 |
| VLLRDNGLELFAP | 0.779 ± 0.3 |
| PCITRTARSQIVTFKRG | -0.35 ± 1.1 |
| KRYGAVHDVCMRVSFNASQV | 1.2 ± 0.32 |
| IMLATAAYFVLLGIFPGAWF | inactive |
| CRLLCVIGLYVDNLGPPLAR | -0.044 ± 0.35 |
| SFINVLDQRVILRPPTRVFV | 0.494 ± 0.65 |
| RARFWINGFRVL | inactive |
| TRMCGMGTQGGLSRF | 0.257 ± 0.65 |
| YVGHRTMMKFTIIVIYYMYP | -1.5 ± 1 |
| PRSQYRITYDYVCCRVMYKY | 0.392 ± 0.46 |
| RQMPVGGCVFMTKVCKT | 0.232 ± 0.64 |

| Substance | amyloid nucleation score |
| --- | --- |
| RHRKMS | -0.496 ± 0.23 |
| RDMGPLVNAPVA | 0.282 ± 0.46 |
| KGGLRISSLVTYM | 0.274 ± 1.1 |
| GMPNFSVFVWAF | 2.59 ± 0.082 |
| YPNLFS | 0.522 ± 0.74 |
| TFVLLRSW | 2.34 ± 0.13 |
| TQFFFDFFE | 0.432 ± 0.4 |
| IVVNNCSEVLEVGSDDAVKR | inactive |
| TIYPFYEKRMRY | -0.459 ± 1.1 |
| VFSYYMSRFLGATCMYKAAG | 5.1 ± 0.072 |
| KFYYVTGDATLNRDLWGSRA | -0.79 ± 0.34 |
| CPDISGVSRHRAKRQKNWLY | inactive |
| VHFMIMQNSNCYCVKHIDFM | 9.425 ± 0.04 |
| CLKGKYESYNADVNAHYSLA | 0.13 ± 0.45 |
| LAIVKGLVKSFLCYDFSGKV | inactive |
| TDLIAVGCPLMYSMRE | 2.04 ± 0.35 |
| NYIWFVNPYRRFSHVNHITN | -0.176 ± 1.1 |
| FFDSSCIFITHLL | 1.77 ± 0.18 |
| YCTSDG | 0.559 ± 0.8 |
| NGVRYYFRVRGSMTRLNEAE | 0.276 ± 1 |
| KRFIWCFRVTLFT | -0.633 ± 1.1 |
| HCSQNYMVTRKIFSLWIPYV | inactive |
| AYHNLRN | 0.191 ± 0.63 |
| FTVKGTITVYFMVAV | 2.17 ± 0.11 |
| VSLHKRPTWLPVCIARYGWS | 0.333 ± 0.24 |

| Substance | amyloid nucleation score |
| --- | --- |
| VDRESRFWWEGVQGFLDYWV | -0.614 ± 0.79 |
| DTVYAF | -0.651 ± 1.1 |
| QLMDGSRSLFMALRRRFLLV | 0.691 ± 0.74 |
| RSIWMKLCMWIECSDKETRF | 4.17 ± 0.13 |
| RFAFFVYPTYMRMTVTVLSY | inactive |
| NNGMFGNFSKSDYFDKWRYM | inactive |
| VSAWWQDVYSCTHTHAPAAQ | 5.46 ± 0.098 |
| CTCNLWYTLMCAFHASRLVH | 0.327 ± 0.34 |
| IRCLFVT | inactive |
| LSKGTPSQSMMSSLLSINTL | -0.159 ± 1 |
| GNIGYCKRSFSGLQLVGCAR | -0.464 ± 0.78 |
| SISAKFSSTSWGGG | 6.444 ± 0.046 |
| MYDCGVLFIDIRVKVGHVLE | 0.167 ± 0.56 |
| GNGWAMSVTKR | 0.571 ± 0.64 |
| FCYQMSEVWIWCKFIFSI | -1 ± 1.1 |
| IMCQVSR | -0.171 ± 1 |
| ISAWAWHQVTWRIPGALVVG | 0.294 ± 1.1 |
| WNWRVNDGVPGMTYVKAYSS | -0.672 ± 0.42 |
| TFAATIGTCMVEILSMGSPG | 0.603 ± 0.52 |
| FRRCGPDGGIWLDLAACKKI | 0.1 ± 0.38 |
| DMLPLMSAVPHSFSMLVWGE | -0.109 ± 0.36 |
| KMDRDS | -0.125 ± 0.38 |
| FLACQYNCLVDSMG | 3.26 ± 0.051 |
| SNYSPGFLCWALESSTNM | -0.99 ± 1.1 |
| SERTLNLRSKSSPHPCST | 3.86 ± 0.12 |

| Substance | amyloid nucleation score |
| --- | --- |
| ECIYIMFKACGLRDRFSQVF | 1.84 ± 0.13 |
| EGCRMLNIYLPDFLSFLDTG | -1.16 ± 0.78 |
| MFMANGSWTYEEVIE | 1.47 ± 0.16 |
| FSLLD | -0.264 ± 0.45 |
| VCVFMDFHLYMMSARQSTKD | 7.894 ± 0.042 |
| QCGWDFLFIVMCKFVQRRCS | 0.35 ± 0.8 |
| YLTSINLRVGGSWLCNNGRM | 1.96 ± 0.14 |
| DSVFVFGSHLFLQNSVRGRT | -0.295 ± 0.24 |
| RTLFV | -0.146 ± 0.63 |
| LGRNGASYLNDSCRIPNAGK | -0.562 ± 0.56 |
| LGHILV | inactive |
| TLQCDVNTVLILHVYTTYKS | 1.13 ± 0.24 |
| WYSIIREEAALSYCSSHYKN | 2.49 ± 0.15 |
| HHMKGAGPNNLFPGDPSGAR | 3.46 ± 0.065 |
| ISVFLVMQRCVYDSYAFQAE | -0.503 ± 0.63 |
| LDLRMRYQVPYQWGTNSAEN | 0.629 ± 0.48 |
| HLFYCRSIGDILRSFGETPT | inactive |
| MHASGHWYMKRSSLGADSPV | 0.815 ± 0.18 |
| FSRYGRMRFLHCSTFSLMPI | -0.07 ± 0.76 |
| CCTTIEGDTLCGCFWD | 10.08 ± 0.038 |
| AYTMQLNHRLVLSVSS | 0.219 ± 0.74 |
| NRIGLCRGLNQFFLPGMWSR | 0.283 ± 0.26 |
| WRVFSYYHISDRF | -0.19 ± 1.1 |
| DNSFMSLYLVRIHFTYPVAA | 3.69 ± 0.082 |
| RYSITGTYYIA | 3.63 ± 0.057 |

| Substance | amyloid nucleation score |
| --- | --- |
| LCFLVFMLRPRLASLYSRML | -1.11 ± 0.36 |
| KVFIANTIGHWCMNQQIMML | 0.217 ± 0.36 |
| HFLVHFVFDLIRCVLAFVYC | 0.61 ± 0.12 |
| TAHYLFTWTLSNVILVCGYD | -0.867 ± 0.48 |
| CMVIRSW | -0.064 ± 0.34 |
| RVLKFFYGLTRVVS | 1.23 ± 0.12 |
| IIGGTYIWVCVRGPTGRFDG | 9.373 ± 0.064 |
| TVLVSRFDIIRHRCPTELKR | 0.153 ± 0.8 |
| HFSDIRAFCFPCNPIMRVMK | -0.406 ± 0.56 |
| HSSAFMRMLMFRELRRNSDP | inactive |
| LRFLLPPTMTVGMKFSSDAG | 0.062 ± 0.79 |
| RLPHSVSALSLKILGGARAR | 0.02 ± 0.56 |
| VVDGYYGFWVVSQEDISIYP | -0.094 ± 0.54 |
| LVCSKSAGEWAYSRFGVLDL | -0.444 ± 0.44 |
| LPYHCNWHMLSYLTCGYCS | 0.711 ± 0.6 |
| GSCNASVPVQV | 0.057 ± 0.76 |
| TYMCQYDSLLTKTMINNRRG | -0.611 ± 0.61 |
| RLCANDLIIGVEMGEGVFDY | 1.1 ± 0.31 |
| LMIAFKQRFIPS | 1.12 ± 0.4 |
| IRGSKSFHLCEAK | 0.213 ± 0.33 |
| IEIHALRPEQMFSVLGYGVQ | 0.146 ± 0.27 |
| SLNFFIMSKSSTGVSSFLYV | 6.483 ± 0.038 |
| WDPLSSCKGACDM | 0.717 ± 0.43 |
| RSCMMCTT | 0.266 ± 0.41 |
| LIDRIKWEGPFRIRWLFSWF | 0.566 ± 0.66 |

| Substance | amyloid nucleation score |
| --- | --- |
| RLRNI | 0.399 ± 0.2 |
| HVAFKLKVIVRIVSLTSGER | 2.94 ± 0.075 |
| GATCTSCDRCIALVSGGRKR | 0.313 ± 0.44 |
| FSYQSHY | 0.466 ± 0.23 |
| SQHSRHRRQSVVYYAVDGVE | 1.21 ± 0.31 |
| WINVGCVCLMVMHILPI | 5.4 ± 0.073 |
| VTMKHVAGSSHDCPYAILTN | 0.082 ± 1 |
| GGMPVFISVTVLYEWNDFLF | 6.671 ± 0.032 |
| VQISWRFVPWI | 1.79 ± 0.12 |
| SVILILSVGLLTIYLSRNG | 2.76 ± 0.078 |
| VRFQELAR | 0.343 ± 0.27 |
| RSPDKDSMQTTLLIRRVTSW | 1.14 ± 0.48 |
| LLVGIGMFEEQFQLYHI | -0.867 ± 0.29 |
| DGSERIPCLSNYHMLRLTNS | -0.001 ± 0.32 |
| WNLCGCAFDQLYKGVRSVNG | 3.84 ± 0.066 |
| ISDLCNASGWIRKDTSSRRL | -0.27 ± 0.23 |
| YLSTFVGTVHDSHTCRFCWN | 3.79 ± 0.13 |
| YLVNNAEMVNMELMISVSGA | -0.337 ± 0.38 |
| IKLLLMSLTVSVTGILQFKP | 4.51 ± 0.05 |
| YRINEDET | -1.55 ± 0.41 |
| LLCYRWGHVN | 0.057 ± 0.76 |
| MVHPDVNHSYGSVWKPWSDK | 0.132 ± 0.44 |
| LSHKSVRAKENPIQSSQCES | 1.2 ± 0.33 |
| GRDFCFEVSHYVVMFAFLRD | 0.114 ± 0.63 |
| ETRVITGDVSDRF | 2.55 ± 0.091 |

| Substance | amyloid nucleation score |
| --- | --- |
| VMLSLMDKLEYMPV | 1.31 ± 0.32 |
| GRYLVSKTCFFYLMGNEVN | -0.307 ± 0.56 |
| LGLNLTRDYLMLGKRLKCCR | -0.993 ± 0.78 |
| FGKAF | -0.375 ± 0.79 |
| SGIADEMGSRLTRKLVNRFY | -0.466 ± 0.55 |
| YSKTLERVDSSVD | 1.26 ± 0.38 |
| CMPMISRVLGCDNSYYMSSA | 0.029 ± 0.4 |
| LDVKERTCL | 0.261 ± 0.54 |
| ITKNHSVDDRCTMMYFYLCV | 3.76 ± 0.093 |
| GTDTTIDLNSYGHYYSLCVR | 0.334 ± 0.65 |
| LNQCWRI | inactive |
| QYGVLSSETLGCTVFKWYVS | 0.468 ± 0.6 |
| ISCNKIIDIKMWGWVCAIA | 8.729 ± 0.035 |
| VIFTGKDLLVSLQTKCLAVW | 0.942 ± 0.81 |
| STTLIEFSLYIRYYTND | 4.64 ± 0.084 |
| YVEFCFLTCSASGLAWSLRW | 0.053 ± 0.31 |
| IRFYGS | inactive |
| SVALSQVLEKVWESVPKELN | 0.62 ± 0.62 |
| DQSGDQARNCKCFGSSL | 0.298 ± 0.5 |
| RPTHEAF | 5.87 ± 0.089 |
| IAMFT | 6.299 ± 0.044 |
